Columns and labels:
[1] = target: T1, PKR ΔPK-Myc-Flag (aa 1-270) (UniProt P19525 1-270); assay: co-IP; HEK293 extract with Myc-Flag-tagged PKR FL, ΔPK or ΔRBM mixed with extract with untagged ORF57, RNase A/T1-digested; IP with anti-Flag for PKR; blot anti-ORF57; conditions: partners not purified
T1 construct: PKR (EIF2AK2) aa 1-270, kinase domain deleted; made from pPKR-FL; also called N-terminal RBM domain of PKR; source: HEK293, transfected, in lysate

[2] = target: T2, phosphorylated full-length PKR-Myc-Flag from arsenite-treated cells (UniProt P19525 1-551, phosphorylated; phospho-Thr 451 detected with anti-phosphorylated PKR (Thr 451)); assay: co-IP; extract of HEK293 cells with PKR-Myc-Flag, untreated or treated with arsenite for 30 min, mixed with HEK293 extract with ORF57-Flag, RNase A/T1-digested; pulled down with anti-Myc beads; blots anti-Flag, anti-pPKR (Thr 451), anti-ORF57; conditions: partners not purified
T2 construct: protein kinase R (PKR, EIF2AK2), full length, from pPKR-FL, phosphorylated in arsenite-treated cells; Other phosphorylated sites are not determined in this experiment; also called p-PKR; phosphorylated FL PKR; source: HEK293, transfected, treated with arsenite for 30 min, in lysate
T2 sequence (P19525 whole entry): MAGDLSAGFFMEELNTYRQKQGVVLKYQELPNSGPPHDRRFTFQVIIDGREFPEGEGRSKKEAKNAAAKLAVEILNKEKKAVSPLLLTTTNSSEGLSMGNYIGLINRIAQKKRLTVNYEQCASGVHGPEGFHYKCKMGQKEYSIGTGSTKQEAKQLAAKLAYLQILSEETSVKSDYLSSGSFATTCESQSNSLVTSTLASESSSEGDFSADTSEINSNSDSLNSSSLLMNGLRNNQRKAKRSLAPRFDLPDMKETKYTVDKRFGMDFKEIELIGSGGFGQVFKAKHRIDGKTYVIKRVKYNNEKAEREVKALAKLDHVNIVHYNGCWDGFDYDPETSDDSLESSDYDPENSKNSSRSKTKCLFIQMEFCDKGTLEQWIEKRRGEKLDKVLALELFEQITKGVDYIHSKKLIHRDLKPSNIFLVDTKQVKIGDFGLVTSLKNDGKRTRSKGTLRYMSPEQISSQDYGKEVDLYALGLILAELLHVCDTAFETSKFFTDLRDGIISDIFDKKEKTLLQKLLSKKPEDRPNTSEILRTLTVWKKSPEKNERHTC

T1 sequence (P19525 1-270, stated change not applied): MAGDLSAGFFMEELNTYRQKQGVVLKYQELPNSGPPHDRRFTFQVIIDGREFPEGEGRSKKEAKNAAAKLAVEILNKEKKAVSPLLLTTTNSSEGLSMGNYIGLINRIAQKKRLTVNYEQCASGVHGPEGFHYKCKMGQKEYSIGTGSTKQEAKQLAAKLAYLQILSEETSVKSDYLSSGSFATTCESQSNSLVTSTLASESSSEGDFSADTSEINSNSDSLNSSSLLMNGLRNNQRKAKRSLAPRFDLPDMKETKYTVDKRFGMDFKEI

Row | Binder | fold binding relative to FL PKR [1] | fold binding relative to PKR from untreated cells [2]
1 | KSHV ORF57, untagged (pcDNA-ORF57) (natural protein, KSHV ORF57, untagged, expressed from pcDNA-ORF57; also called untagged ORF57; source: HEK293, transfected, in lysate) MVQAMIDMDIMKGILEDSVSSSEFDESRDDETDAPTLEDEQLSEPAEPPADERIRGTQSAQGIPPPLGRIPKKSQGRSQLRSEIQFCSPLSRPRSPSPVNRYGKKIKFGTAGQNTRPPPEKRPRRRPRDRLQYGRTTRGGQCRAAPKRATRRPQVNCQRQDDDVRQGVSDAVKKLRLPASMIIDGESPRFDDSIIPRHHGACFNVFIPAPPSHVPEVFTDRDITALIRAGGKDDELINKKISAKKIDHLHRQMLSFVTSRHNQAYWVSCRRETAAAGGLQTLGAFVEEQMTWAQTVVRHGGWFDEKDIDIILDTAIFVCNAFVTRFRLLHLSCVFDKQSELALIKQVAYLVAMGNRLVEACNLLGEVKLNFRGGLLLAFVLTIPGMQSRRSISARGQELFRTLLEYYRPGDVMGLLNVIVMEHHSLCRNSECAAATRAAMGSAKFNKGLFFYPLS | ~6.5 fold | 
2 | KSHV ORF57-Flag (wild type, pVM7) (natural protein, KSHV ORF57 (mRNA transcript accumulation protein, MTA), wild type, expressed from pVM7; also called ORF57 wt; ORF57-wt-Flag; source: HEK293 or HeLa, transfected, in lysate) MVQAMIDMDIMKGILEDSVSSSEFDESRDDETDAPTLEDEQLSEPAEPPADERIRGTQSAQGIPPPLGRIPKKSQGRSQLRSEIQFCSPLSRPRSPSPVNRYGKKIKFGTAGQNTRPPPEKRPRRRPRDRLQYGRTTRGGQCRAAPKRATRRPQVNCQRQDDDVRQGVSDAVKKLRLPASMIIDGESPRFDDSIIPRHHGACFNVFIPAPPSHVPEVFTDRDITALIRAGGKDDELINKKISAKKIDHLHRQMLSFVTSRHNQAYWVSCRRETAAAGGLQTLGAFVEEQMTWAQTVVRHGGWFDEKDIDIILDTAIFVCNAFVTRFRLLHLSCVFDKQSELALIKQVAYLVAMGNRLVEACNLLGEVKLNFRGGLLLAFVLTIPGMQSRRSISARGQELFRTLLEYYRPGDVMGLLNVIVMEHHSLCRNSECAAATRAAMGSAKFNKGLFFYPLS |  | ~3 times

From article PMC5679657, “KSHV inhibits stress granule formation by viral ORF57 blocking PKR activation” (PLoS Pathogens, 2017)
